Square brackets hold non-standard residues; d marks the D form. Ends that are not written are not given here. Hyp = O=C(O)[C@@H]1C[C@@H](O)CN1
Key:
[1] = target: HUI77, murine IgM anti-denatured-collagen monoclonal antibody; test: competition ELISA on coated dn-collagen IV
[2] = target: D93, recombinant humanized IgG1 kappa antibody targeting denatured-collagen; test: competition ELISA on coated human dn-collagen IV; * separate assay
[3] = target: HUI77, murine IgM anti-denatured-collagen monoclonal antibody; test: competition ELISA on coated dn-collagen IV; * separate assay
[4] = target: D93, recombinant humanized IgG1 kappa antibody targeting denatured-collagen; test: competition ELISA on coated human dn-collagen IV

Chain of D93, recombinant humanized IgG1 kappa antibody targeting denatured-collagen (heavy, as listed by the source, chain 1 of 2): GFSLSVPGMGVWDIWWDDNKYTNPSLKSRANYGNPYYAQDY
Chain of D93, recombinant humanized IgG1 kappa antibody targeting denatured-collagen (light, as listed by the source, chain 2 of 2): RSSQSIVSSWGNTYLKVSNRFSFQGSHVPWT

Row | Binder | % inhibition of HUI77 binding to dn-collagen IV, peptide 10 µM [1] | % inhibition of HUI77 binding to dn-collagen IV, peptide 100 µM [1] | % inhibition of HUI77 binding to dn-collagen IV, peptide 1000 µM [1] | % inhibition of D93 binding to dn-collagen IV, peptide 10 µM [2] | % inhibition of D93 binding to dn-collagen IV, peptide 100 µM [2] | % inhibition of HUI77 binding to dn-collagen IV, peptide 100 µM [3] | % inhibition of HUI77 binding to dn-collagen IV, peptide 1000 µM [3] | % inhibition of D93 binding to dn-collagen IV, peptide 1 µM [4] | % inhibition of D93 binding to dn-collagen IV, peptide 10 µM [4] | % inhibition of D93 binding to dn-collagen IV, peptide 100 µM [4] | % inhibition of D93 binding to dn-collagen IV, peptide 1000 µM [4] | % inhibition of D93 binding to dn-collagen IV, peptide 1000 µM [2]
1 | GP[Hyp]GP[Hyp]GPY [synthetic peptide No. 3, … (SEQ ID NO: 30)] | 8.5% | 12% | 78% | 79.9% | 90.3% | 0% | 63% | 33% | 82.5% | 94% | 94% | 
2 | CTWPRHHTTDALL [non-collagen control peptide No. 6, … (SEQ ID NO: 39)] | 6.5% | 6.5% | 6.5% |  |  |  | 11.1% | 4.5% | 1% | 0% | 3.5% | 4.9%

Results, then the binder that gave them:

Row | % inhibition of HUI77 binding to dn-collagen IV, peptide 10 µM [1] | % inhibition of HUI77 binding to dn-collagen IV, peptide 100 µM [1] | % inhibition of HUI77 binding to dn-collagen IV, peptide 1000 µM [1] | % inhibition of D93 binding to dn-collagen IV, peptide 10 µM [2] | % inhibition of D93 binding to dn-collagen IV, peptide 100 µM [2] | % inhibition of HUI77 binding to dn-collagen IV, peptide 100 µM [3] | % inhibition of HUI77 binding to dn-collagen IV, peptide 1000 µM [3] | % inhibition of D93 binding to dn-collagen IV, peptide 1 µM [4] | % inhibition of D93 binding to dn-collagen IV, peptide 10 µM [4] | % inhibition of D93 binding to dn-collagen IV, peptide 100 µM [4] | % inhibition of D93 binding to dn-collagen IV, peptide 1000 µM [4] | % inhibition of D93 binding to dn-collagen IV, peptide 1000 µM [2] | Binder
3 | 7.5% | 18% | 86.5% |  |  |  |  | 30% | 81% | 93.5% | 93.5% |  | [Hyp]GAKGLPGP[Hyp]GP[Hyp]GPY [synthetic peptide No. 12, … (SEQ ID NO: 2)]
4 | 8% | 10.5% | 10% |  |  |  |  | 11% | 6% | 4% | 11.5% |  | [Hyp]GAKGLPGP [synthetic peptide No. 13, … (SEQ ID NO: 17)]
5 | 10% | 14% | 73% |  |  |  |  | 12% | 41.5% | 89% | 92.5% |  | LPGP[Hyp]GP[Hyp]GP [synthetic peptide No. 5, … (SEQ ID NO: 20)]
6 | 6.5% | 18% | 86% |  |  |  |  | 13% | 35.5% | 85.5% | 92.5% |  | LPGP[Hyp]GP[Hyp]G [synthetic peptide No. 20, … (SEQ ID NO: 21)]

Source: patent publication US20080008707A1, “Denatured collagen peptides and uses thereof” (Cell-Matrix, Inc., priority 2006, published 2008)
